Laboratory results from IntAct's records for PubMed 24591568.

B1: Rab11 family-interacting protein 5 (Homo sapiens), Q9BXF6 (parent)
chain: MALVRGAEPAAGPSRWLPTHVQVTVLRARGLRGKSSGAGSTSDAYTVIQVGREKYSTSVVEKTHGCPEWREECSFELPPGALDGLLRAQEADAGPAPWAASSAAACELVLTTMHRSLIGVDKFLGQATVALDEVFGAGRAQHTQWYKLHSKPGKKEKERGEIEVTIQFTRNNLSASMFDLSMKDKPRSPFSKIRDKMKGKKKYDLESASAILPSSAIEDPDLGSLGKMGKAKGFFLRNKLRKSSLTQSNTSLGSDSTLSSASGSLAYQGPGAELLTRSPSRSSWLSTEGGRDSAQSPKLFTHKRTYSDEANQMRVAPPRALLDLQGHLDAASRSSLCVNGSHIYNEEPQGPVRHRSSISGSLPSSGSLQAVSSRFSEEGPRSTDDTWPRGSRSNSSSEAVLGQEELSAQAKVLAPGASHPGEEEGARLPEGKPVQVATPIVASSEAVAEKEGARKEERKPRMGLFHHHHQGLSRSELGRRSSLGEKGGPILGASPHHSSSGEEKAKSSWFGLREAKDPTQKPSPHPVKPLSAAPVEGSPDRKQSRSSLSIALSSGLEKLKTVTSGSIQPVTQAPQAGQMVDTKRLKDSAVLDQSAKYYHLTHDELISLLLQRERELSQRDEHVQELESYIDRLLVRIMETSPTLLQIPPGPPK
partner: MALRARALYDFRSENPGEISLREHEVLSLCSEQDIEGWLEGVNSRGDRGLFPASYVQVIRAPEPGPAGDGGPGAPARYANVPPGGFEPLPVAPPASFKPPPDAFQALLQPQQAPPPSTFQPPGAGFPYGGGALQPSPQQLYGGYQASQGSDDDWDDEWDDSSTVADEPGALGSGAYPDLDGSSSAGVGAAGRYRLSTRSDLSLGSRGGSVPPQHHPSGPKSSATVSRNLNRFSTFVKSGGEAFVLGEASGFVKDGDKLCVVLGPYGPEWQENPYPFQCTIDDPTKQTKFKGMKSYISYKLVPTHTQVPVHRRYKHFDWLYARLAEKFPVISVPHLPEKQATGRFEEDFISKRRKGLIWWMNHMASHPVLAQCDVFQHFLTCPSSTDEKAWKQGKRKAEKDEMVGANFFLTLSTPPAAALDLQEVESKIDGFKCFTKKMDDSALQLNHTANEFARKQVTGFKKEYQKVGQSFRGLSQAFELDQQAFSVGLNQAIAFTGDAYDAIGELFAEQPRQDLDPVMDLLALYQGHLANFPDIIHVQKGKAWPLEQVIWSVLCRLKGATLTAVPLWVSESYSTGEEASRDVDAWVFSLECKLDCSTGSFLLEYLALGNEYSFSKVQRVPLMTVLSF
B2: Rab11 family-interacting protein 5 (Homo sapiens), Q9BXF6 (parent)
chain: B1 chain

Variants of: B1
Conditions: with snx18_human SNX18, Q96RF0

| Variant | effect of a mutation on the interaction |
| --- | --- |
| T276D | decreasing interaction |

Variants of: B1
Conditions: with snx18_human SNX18, Q96RF0
Remark: another data set of the same source

| Variant | effect of a mutation on the interaction |
| --- | --- |
| T276A | increasing interaction |

Variants of: B2
Conditions: with kif3a_human KIF3A

| Variant | effect of a mutation on the interaction |
| --- | --- |
| T276D | increasing interaction |

Variants of: B2
Conditions: with kif3a_human KIF3A
Remark: another data set of the same source

| Variant | effect of a mutation on the interaction |
| --- | --- |
| T276A | increasing interaction |
